B1: PAX-interacting protein 1 (Homo sapiens), Q6ZW49-1 (parent)
chain: MVFLQNHVRFFLESLPAFLRVLIQAGALCWSLPELSQGEVGKGACPAEVGKHRDHLPSSDPVLMQAEASVVMCWVSSEDRSALWALVTFYGGDCQLTLNKKCTHLIVPEPKGEKYECALKRASIKIVTPDWVLDCVSEKTKKDEAFYHPRLIIYEEEEEEEEEEEEVENEEQDSQNEGSTDEKSSPASSQEGSPSGDQQFSPKSNTEKSKGELMFDDSSDSSPEKQERNLNWTPAEVPQLAAAKRRLPQGKEPGLINLCANVPPVPGNILPPEVRGNLMAAGQNLQSSERSEMIATWSPAVRTLRNITNNADIQQMNRPSNVAHILQTLSAPTKNLEQQVNHSQQGHTNANAVLFSQVKVTPETHMLQQQQQAQQQQQQHPVLHLQPQQIMQLQQQQQQQISQQPYPQQPPHPFSQQQQQQQQAHPHQFSQQQLQFPQQQLHPPQQLHRPQQQLQPFQQQHALQQQFHQLQQHQLQQQQLAQLQQQHSLLQQQQQQQIQQQQLQRMHQQQQQQQMQSQTAPHLSQTSQALQHQVPPQQPPQQQQQQQPPPSPQQHQLFGHDPAVEIPEEGFLLGCVFAIADYPEQMSDKQLLATWKRIIQAHGGTVDPTFTSRCTHLLCESQVSSAYAQAIRERKRCVTAHWLNTVLKKKKMVPPHRALHFPVAFPPGGKPCSQHIISVTGFVDSDRDDLKLMAYLAGAKYTGYLCRSNTVLICKEPTGLKYEKAKEWRIPCVNAQWLGDILLGNFEALRQIQYSRYTAFSLQDPFAPTQHLVLNLLDAWRVPLKVSAELLMSIRLPPKLKQNEVANVQPSSKRARIEDVPPPTKKLTPELTPFVLFTGFEPVQVQQYIKKLYILGGEVAESAQKCTHLIASKVTRTVKFLTAISVVKHIVTPEWLEECFRCQKFIDEQNYILRDAEAEVLFSFSLEESLKRAHVSPLFKAKYFYITPGICPSLSTMKAIVECAGGKVLSKQPSFRKLMEHKQNSSLSEIILISCENDLHLCREYFARGIDVHNAEFVLTGVLTQTLDYESYKFN

Variants of: B1
Details: with h2ax_human H2AX

Row | Variant | effect of a mutation on the interaction
1 | K879M | disrupting interaction

Variants of: B1
Details: with h2ax_human H2AX
Remark: another data set of the same source

Row | Variant | effect of a mutation on the interaction
2 | T838A | disrupting interaction

Variants of: B1
Details: with h2ax_human H2AX
Remark: another data set of the same source

Row | Variant | effect of a mutation on the interaction
3 | E1016A | decreasing interaction

Variants of: B1
Details: with h2ax_human H2AX
Remark: another data set of the same source

Row | Variant | effect of a mutation on the interaction
4 | T1020A | increasing interaction

Variants of: B1
Details: with h2ax_human H2AX
Remark: another data set of the same source

Row | Variant | effect of a mutation on the interaction
5 | R876D | disrupting interaction

From IntAct's records for PubMed 22064073
